Here are results for 32 substances from US20140336126A1.

Sequence of GS-TAP-tagged Optn (human) (Q96CV9 whole entry E322K, canonical isoform): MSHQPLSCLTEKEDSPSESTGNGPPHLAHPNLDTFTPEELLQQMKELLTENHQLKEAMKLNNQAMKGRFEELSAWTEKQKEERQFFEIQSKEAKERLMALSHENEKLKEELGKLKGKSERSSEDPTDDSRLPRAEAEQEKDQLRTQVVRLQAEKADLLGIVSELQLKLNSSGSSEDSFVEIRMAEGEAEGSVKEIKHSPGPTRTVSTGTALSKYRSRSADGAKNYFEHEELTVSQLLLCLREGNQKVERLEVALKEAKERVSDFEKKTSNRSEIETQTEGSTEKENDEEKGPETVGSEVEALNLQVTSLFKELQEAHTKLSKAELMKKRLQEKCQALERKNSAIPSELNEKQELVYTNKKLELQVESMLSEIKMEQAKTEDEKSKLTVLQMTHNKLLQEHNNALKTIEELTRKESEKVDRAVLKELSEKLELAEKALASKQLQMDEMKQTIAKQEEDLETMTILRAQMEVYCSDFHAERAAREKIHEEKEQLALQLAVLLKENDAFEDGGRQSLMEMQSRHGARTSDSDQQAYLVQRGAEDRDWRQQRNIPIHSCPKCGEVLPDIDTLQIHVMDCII
Sequence of [..] LIGHT CHAIN 2, [..]. (Q96FJ2 whole entry): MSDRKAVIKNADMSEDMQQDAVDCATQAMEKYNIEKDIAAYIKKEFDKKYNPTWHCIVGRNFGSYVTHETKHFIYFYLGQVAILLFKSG
Sequence of MYOSIN, LIGHT CHAIN 6, ALKALI, SMOOTH MUSCLE AND NON-MUSCLE ISOFORM 1. (P60660 2-151): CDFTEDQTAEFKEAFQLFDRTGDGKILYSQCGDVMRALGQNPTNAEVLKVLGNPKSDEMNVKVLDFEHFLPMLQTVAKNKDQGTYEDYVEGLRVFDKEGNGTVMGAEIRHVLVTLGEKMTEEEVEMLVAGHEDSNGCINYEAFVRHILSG

This assay has as its target GS-TAP-tagged Optn (human) (UniProt Q96CV9). Briefly: TAP of GS-tagged Optn from HEK-293 cells, LC-MSMS.
On to “ISOFORM 1 OF MYOSIN PHOSPHATASE RHO-… PROTEIN. (from UniProt Q6WCQ1 2-1025)”, for which the sequence coverage was 0.21 and the unique peptide counts worked out at 17.

Substance “ISOFORM 1 OF HEAT SHOCK COGNATE 71 KDA PROTEIN. (from UniProt P11142 2-646)” returned a sequence coverage of 0.24 and a unique peptide counts of 14.

“TROPOMYOSIN 4. (from UniProt P67936 2-248)” came in with a sequence coverage of 0.18 and a unique peptide counts of 6.

For “STRESS-70 PROTEIN, MITOCHONDRIAL PRECURSOR. (from UniProt P38646 47-679)”, the sequence coverage was 0.09 and the unique peptide counts turned out to be 5.

The substance MYOSIN-9. (from UniProt P35579 2-1960) displayed a sequence coverage of 0.06 and a unique peptide counts of 10.

With “ELONGATION FACTOR 1-ALPHA 2. (from UniProt Q05639 2-463)”, the sequence coverage is 0.06 and the unique peptide counts stood at 3.

Substance “ISOFORM 1 OF MYOSIN IB. (from UniProt O43795 1-1136)” returned a sequence coverage of 0.03 and a unique peptide counts of 3.

The substance “DYNEIN LIGHT CHAIN 1, CYTOPLASMIC. (from UniProt P63167 1-89)” gave a sequence coverage of 0.64 and a unique peptide counts of 5.

Substance “MYOSIN, LIGHT CHAIN 6, ALKALI, SMOOTH MUSCLE AND NON-MUSCLE ISOFORM 1.” displayed a sequence coverage of 0.28 and a unique peptide counts of 5.

“ISOFORM 1 OF MYOSIN-10. (from UniProt P35580 1-1976)” gave a sequence coverage of 0.04 and a unique peptide counts of 7.

On to “GUANINE NUCLEOTIDE-BINDING PROTEIN G. (from UniProt P08754 2-354)”, for which the sequence coverage was determined as 0.19 and the unique peptide counts worked out at 6.

“TROPOMYOSIN 1 ALPHA CHAIN ISOFORM 7. (from UniProt P09493 1-284)” registered a sequence coverage of 0.19 and a unique peptide counts of 5.

For “HEAT SHOCK 70 KDA PROTEIN 1. (from UniProt P0DMV9 2-641)”, the sequence coverage was determined as 0.25 and the unique peptide counts was determined as 17.

The substance “ISOFORM LONG OF SPECTRIN BETA CHAIN, BRAIN 1. (from UniProt Q01082 2-2364)” displayed a sequence coverage of 0.01 and a unique peptide counts of 2.

Take “COMPLEMENT COMPONENT 1 Q SUBCOMPONENT-BINDING PROTEIN, MITOCHONDRIAL PRECURSOR. (from UniProt Q07021 74-282)”: the sequence coverage amounted to 0.22 and the unique peptide counts was 5.

“ALPHA-ACTININ-4. (from UniProt O43707 1-911)” yielded a sequence coverage of 0.02 and a unique peptide counts of 2.

As for “ISOFORM 2 OF ANKYCORBIN. (from UniProt Q9P0K7 1-983)”, the sequence coverage is 0.12 and the unique peptide counts worked out at 11.

As to “type 1 protein phosphatase catalytic subunit PP1β (from UniProt P62140 1-327) (enzyme)”, the sequence coverage came out at 0.2 and the unique peptide counts was found to be 6.

For the substance “ISOFORM SNAP-23A OF SYNAPTOSOMAL-ASSOCIATED PROTEIN 23. (from UniProt O00161 1-211)”, the sequence coverage stood at 0.11 and the unique peptide counts stood at 2.

“HEAT SHOCK 70 KDA PROTEIN 1L. (from UniProt P34931 1-641)” came in with a sequence coverage of 0.12 and a unique peptide counts of 7.

Substance “DESMOGLEIN 2 PREPROPROTEIN. (from UniProt Q14126 50-1118)” gave a sequence coverage of 0.02 and a unique peptide counts of 2.

The substance “GALPHAI2 PROTEIN. (from UniProt P04899 2-355)” displayed a sequence coverage of 0.15 and a unique peptide counts of 5.

Turning to CORONIN-1C. (from UniProt Q9ULV4 1-474), the sequence coverage was found to be 0.25 and the unique peptide counts was determined as 13.

Take “285 KDA PROTEIN. (from UniProt Q13813 1-2472)”: the sequence coverage amounted to 0.03 and the unique peptide counts stood at 7.

The substance “[..] LIGHT CHAIN 2, [..]. (from UniProt Q96FJ2 1-89)” displayed a sequence coverage of 0.64 and a unique peptide counts of 5.

For the substance “HEAT SHOCK 70 KDA PROTEIN 6. (from UniProt P17066 1-643)”, the sequence coverage came to 0.12 and the unique peptide counts came to 8.

On to “PRKC APOPTOSIS WT1 REGULATOR PROTEIN. (from UniProt Q96IZ0 1-340)”, for which the sequence coverage is 0.09 and the unique peptide counts came out at 2.

The substance “MYOSIN REGULATORY LIGHT CHAIN. (from UniProt O14950 2-172)” gave a sequence coverage of 0.19 and a unique peptide counts of 3.

“PEROX1REDOXIN-1. (from UniProt Q06830 2-199) (enzyme)” displayed a sequence coverage of 0.11 and a unique peptide counts of 2.

Take FILAMIN 1. (from UniProt P21333 2-2647): the sequence coverage amounted to 0.05 and the unique peptide counts amounted to 10.

“GUANINE NUCLEOTIDE-BINDING PROTEIN G(I)/G(S)/G(T) SUBUNIT BETA 2. (from UniProt P62879 2-340)” showed a sequence coverage of 0.06 and a unique peptide counts of 2.

Substance “RAS-RELATED PROTEIN RAB-35. (from UniProt Q15286 1-201)” had a sequence coverage of 0.16 and a unique peptide counts of 3.
